In assay [1] the target is T1, SARS-CoV-2 RBD-SD1 with murine IgG2a Fc part, produced in High Five cells (SARS-CoV-2, UniProt P0DTC2).
T1 construct: source: High Five insect cells, transient transfection, purified (Protein A)
Briefly: ELISA. To be noted: both partners purified. Background: An ELISA detects its analyte on a solid surface through an enzyme-linked reagent.

For assay [2], the target named is T1, SARS-CoV-2 RBD-SD1 with murine IgG2a Fc …. Kind of assay: flow cytometry on cells. The settings on record: both partners purified. Background: A flow cytometer gives signals particle by particle.

B1: STE72-4E12 scFv-Fc (scFv, V domains shown)
VH: QVQLVQSGAEVKKPGASVKVSCKASGYTFTSYYMHWVRQAPGQGLEWMGIINPSGGSTSYAQKFQGRVTMTRDTSTSTVYMELSSLRSEDTAVYYCARDLSGGLDYWGQGTLVTVSS
VL: ETTLTQSPATLSVSPGERVTLACRAGQTISSKLAWYRQKPGQAPSLLIYDASTRATGVPARFSGSGSGTEFTLTISSLQSEDFAVYYCQQYSDWPPTFGQGTKVEIK
notes: also called scFv-hFc; source: Expi293F, transient transfection, purified (Protein A)
What is called EC50 is the concentration that produces a half-maximal response. Low values mean higher potency in that assay, high ones lower potency in that assay. For orientation: IC50 means the concentration at which inhibition is half-maximal. As to B1, the EC50 in assay [1] worked out at 1.5 nM. The same molecule yielded an IC50 in assay [2] of 3 nM.

The record behind these values is PMC7952403 (Nature Communications, 2021).
